We go through 1 molecule from patent US9725708B2, “Methods of modulating ubiquitin ligase activity” (Board of Supervisors of Louisiana State University and …, priority 2012, dated 2017).

Numbering of substitutions follows the chain as printed. “Also recorded” adds a separate entry of the source. Where two headings read alike, the source gives them in different places.

The target of data set [1] is T1, E6AP ligase (Homo sapiens, UniProt Q05086).
T1 construct: corresponding to full-length GST-E6AP; made in house; host or cells: E. coli
T1 sequence (Q05086 1-872 isoform Q05086-3): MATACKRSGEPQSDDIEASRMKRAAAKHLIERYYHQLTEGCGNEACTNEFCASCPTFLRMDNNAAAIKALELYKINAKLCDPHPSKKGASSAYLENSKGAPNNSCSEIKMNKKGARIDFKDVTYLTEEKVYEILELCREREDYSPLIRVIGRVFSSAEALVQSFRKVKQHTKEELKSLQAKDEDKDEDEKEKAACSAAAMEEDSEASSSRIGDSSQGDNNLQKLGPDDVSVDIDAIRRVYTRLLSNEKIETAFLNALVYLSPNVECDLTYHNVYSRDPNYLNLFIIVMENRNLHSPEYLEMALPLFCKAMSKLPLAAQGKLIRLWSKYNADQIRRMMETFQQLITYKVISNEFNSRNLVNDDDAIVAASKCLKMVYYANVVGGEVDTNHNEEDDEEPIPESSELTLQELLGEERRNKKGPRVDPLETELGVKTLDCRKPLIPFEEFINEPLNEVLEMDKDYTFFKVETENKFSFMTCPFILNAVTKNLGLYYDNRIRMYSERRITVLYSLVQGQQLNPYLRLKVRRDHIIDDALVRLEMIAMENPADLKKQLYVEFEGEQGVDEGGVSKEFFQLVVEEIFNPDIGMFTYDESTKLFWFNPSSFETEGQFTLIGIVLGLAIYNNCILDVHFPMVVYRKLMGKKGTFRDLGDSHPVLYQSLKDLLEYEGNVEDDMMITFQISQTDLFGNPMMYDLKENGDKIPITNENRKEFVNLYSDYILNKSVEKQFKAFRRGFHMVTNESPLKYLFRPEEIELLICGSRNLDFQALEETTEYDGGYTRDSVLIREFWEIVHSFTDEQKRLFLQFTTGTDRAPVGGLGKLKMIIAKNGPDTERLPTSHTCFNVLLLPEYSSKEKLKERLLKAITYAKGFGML
Briefly: E6AP-catalyzed 125I-polyubiquitin chain formation, initial rates. In kind it is biochemical. The procedure:
(§1) E6AP-catalyzed ^125I-Ubiquitin Conjugation Assay: The E3 ligase activity of recombinant E6AP ligase was quantitated in kinetic assays under initial velocity conditions (Ronchi et al., (2013) J. Biol. Chem. 288, 10349-10360, Ronchi & Haas (2012) Methods Mol. Biol. 832: 197-218). Rates of E6AP-catalyzed ^125I-polyubiquitin chain formation were measured at 37° C. in incubations of 25-μl final volume containing 50 mM Tris-HCl (pH 7.5), 1 mM ATP, 10 mM MgCl2, 1 mM DTT, 10 mM creatine phosphate, 1 IU of creatine phosphokinase, 5 μM ^125I-ubiquitin (approximately 1.5×10^4 cpm/pmol), 50 nM human Uba1, and the indicated concentrations of UbcH7 and E6AP ligase (Siepmann et al., (2003) J. Biol. Chem. 278: 9448-9457; Baboshina et al., (2001) J. Biol. Chem. 276: 39428-39437).
Reactions were initiated by the addition of ^125I-ubiquitin. After 10-30 min, the reactions were quenched by the addition of 25 μl of 2×SDS sample buffer containing 0.3% (v/v) β-mercaptoethanol, and then the samples were heated to 100° C. for 3 min. The polyubiquitin conjugates were resolved from free ^125I-ubiquitin by 12% (w/v) SDS-PAGE under reducing conditions at 4° C. and visualized by autoradiography of the dried gels.
Polyubiquitin chain formation was measured by excising lanes between the top of the resolving gel and the top of the stacker gel, representing anchored and free ^125I-polyubiquitin chains, respectively, and quantitating associated ^125I-ubiquitin by γ-counting. Absolute rates of ^125I-polyubiquitin chain formation were calculated from the associated radioactivity and the corrected specific radioactivity for ^125I-ubiquitin. Datum points represent single assay determinations, and complete data sets were evaluated by non-linear regression analysis using GraFit version 5.0 (Erithicus). Active Uba1, E2, and E6AP ligase were independently determined in parallel by their stoichiometric formation of ^125I-ubiquitin thioester.

Data set [2] deals with T2, E6APF727D (Homo sapiens, UniProt Q05086, F750D).
T2 construct: made in house; host or cells: E. coli
T2 sequence (Q05086 1-872 isoform Q05086-3 F747D): T1 sequence (Q05086 1-872 isoform Q05086-3) with F747D
Briefly: E6 rescue of 125I-polyubiquitin chain formation by E6APF727D. In kind it is biochemical. The following applies: 20 nM E6 protein. The procedure:
as §1, with “39428-39437). […]” for “39428-39437).”
Polyubiquitin chain formation was measured by excising lanes between the top of the resolving gel and the top of the stacker gel, representing anchored and free ^125I-polyubiquitin chains, respectively, and quantitating associated ^125I-ubiquitin by γ-counting. Absolute rates of ^125I-polyubiquitin chain formation were calculated from the associated radioactivity and the corrected specific radioactivity for ^125I-ubiquitin. Datum points represent single assay determinations, and complete data sets were evaluated by non-linear regression analysis using GraFit version 5.0 (Erithicus). […]

The target in data set [3] is E6AP ligase (Homo sapiens, UniProt Q05086). The conditions noted are these: surface plasmon resonance, Zanier et al. 2005; cited from earlier work. On the technique in general: In SPR one partner is held on a chip, and binding of the other changes the refractive index at the surface.

B1: E6 protein: recombinant human papilloma virus 16 E6 protein, 158 amino acids (protein)
chain: MHQKRTAMFQDPQERPRKLPQLCTELQTTIHDIILECVYCKQQLLRREVYDFAFRDLCIVYRDGNPYAVCDKCLKFYSKISEYRHYCYSLYGTTLEQQYNKPLCDLLIRCINCQKPLCPEEKQRHLDKKQRFHNIRGRWTGRCMSCCRSSRTRRETQL
In the case of B1, the “effect on initial rate, wild-type protein” value in data set [1] (20 nM E6 protein, 1 nM GST-E6AP) is listed as “significantly enhanced”. The Kactivation in data set [1] (activation of E6AP ligase catalytic activity) was determined as 1.5 nM. Further, the Kd (commonly the equilibrium constant for the complex coming apart) in data set [1] (from double reciprocal plot, His6-E6AP, read-out: Kd for E6 binding) was 1.5 nM; in data set [3] it was 4000 nM. Further, the catalytic constant (kcat) (usually the number of substrate molecules converted per active site and unit of time at saturation) in data set [1] (in the presence of 20 nM E6 protein, 0.4 nM His6-E6AP) was 0.81 ± 0.045 s⁻¹. The “stimulation in E6AP ligase activity” value in data set [1] (saturating E6 protein) was 14 fold. In addition, the mode of action entry in data set [1] (with respect to [UbcH7]o) is given as “non-essential activator”. Further, in data set [2], the “effect on E6APF727D” value is listed as “significantly enhanced; also recorded: rescues the kcat defect”.
